According to US20100068186A1 (published 2010):
Changes are numbered by the printed parent chain.

T1: catalytic sub-unit of the Telomerase protein peptide on HLA-A*02:01 (human)
T1 peptide: ILAKFLHWL

B1: TCR of SEQ ID NOs 15 and 23 (TCR, V domains shown)
Valpha: GIQVEQSPPDLILQEGANSTLRCNFSDSVNNLQWFHQNPWGQLINLFYIPSGTKQNGRLSATTVATERYSLLYISSSQTTDSGVYFCAVDSATTGMFGYIFGTGTRLKVLA
Vbeta: NAGVTQTPKFQVLKTGQSMTLQCAQDMNHEYMSWYRQDPGMGLRLIHYSVGAGITDQGEVPNGYNVSRSTTEDFPLRLLSAAPSQTSVYFCGIQPQGTEAFFGQGTRLTVV
B2: TCR of SEQ ID NOs 15 and 69 (TCR, V domains shown)
Valpha: B1 Valpha
Vbeta: B1 Vbeta with V50I, G51W, A52E, G53F, I54E, I93V
B3: TCR of SEQ ID NOs 15 and 70 (TCR, V domains shown)
Valpha: B1 Valpha
Vbeta: B1 Vbeta with V50I, G51C, A52W, I54C, I93V
B4: TCR of SEQ ID NOs 15 and 66 (TCR, V domains shown)
Valpha: B1 Valpha
Vbeta: B1 Vbeta with V50R, G51W, A52V, I54D
B5: TCR of SEQ ID NOs 15 and 68 (TCR, V domains shown)
Valpha: B1 Valpha
Vbeta: B1 Vbeta with V50I, G51W, A52E, G53F, I54E
B6: TCR of SEQ ID NOs 21 and 65 (TCR, V domains shown)
Valpha: B1 Valpha with T94S
Vbeta: B1 Vbeta with V50R, G51W, A52V, I54D, I93V

Molecular target: T1, catalytic sub-unit of the Telomerase …
Assay: Kd or kinetics

Row | binding result | Binder
1 | recognises | B1
2 | recognises | B2
3 | recognises | B3
4 | recognises | B4
5 | recognises | B5
6 | recognises | B6
